Numbering of substitutions follows the chain as printed. Values belong to the binder of their own block, whether it stands above or below them.
Molecular target: S. cerevisiae RNA Polymerase II (Pol II) (S. cerevisiae) (UniProt P04050)

- transcription stimulation with calf thymus DNA and yeast Pol II ([α-32P]CTP incorporation), against wild-type hNDF: 50 % reduction
B1: full-length hNDF mutant MT1 (natural protein)
chain: MAAVSLRLGDLVWGKLGRYPPWPGKIVNPPKDLKKPRGKKCFFVKFFGTEDHAWIKVEQLKPYHAHKEEMIKINKGKRFQQAVDAVEEFLRRAKGKDQTSSHNSSDDKNRRNSSEERSRPNSGDEKRKLSLSEGKVKKNMAAAAARVSSGSSERGSKSPLKRAQEQSPRKRGRPPKDEKDLTIPESSTVKGMMAGPMAAFKWQPTASEPVKDADPHFHHFLLSQTEKPAVCYQAITKKLKICEEETGSTSIQAADSTAVNGSITPTDKKIGFLGLGLMGSGIVSNLLKMGHTVTVWNRTAEKCDLFIQEGARLGRTPAEVVSTCDITFACVSDPKAAKDLVLGPSGVLQGIRPGKCYVDMSTVDADTVTELAQVIVSRGGRFLEAPVSGNQQLSNDGMLVILAAGDRGLYEDCSSCFQAMGKTSFFLGEVGNAAKMMLIVNMVQGSFMATIAEGLTLAQVTGQSQQTLLDILNQGQLASIFLDQKCQNILQGNFKPDFYLKYIQKDLRLAIALGDAVNHPTPMAAAANEVYKRAKALDQSDNDMSAVYRAYIH

- transcription stimulation with calf thymus DNA and yeast Pol II ([α-32P]CTP incorporation), against wild-type hNDF: 50 % reduction
B2: full-length hNDF mutant MT2 (residues 146–150) (natural protein)
chain: B1 chain with A141G, A142E, A143G, A144K, A145K, R146A, V147A, S148A, S149A, G150A

- transcription stimulation with calf thymus DNA and yeast Pol II ([α-32P]CTP incorporation), against wild-type hNDF: 50 % reduction
B3: full-length hNDF mutant MT3 (natural protein)
chain: B1 chain with A141G, A142E, A143G, A144K, A145K, S151A, S152A, E153A, R154A, G155A

- transcription stimulation with calf thymus DNA and yeast Pol II ([α-32P]CTP incorporation), against wild-type hNDF: 50 % reduction
B4: full-length hNDF mutant MT4 (residues 156–160) (natural protein)
chain: B1 chain with A141G, A142E, A143G, A144K, A145K, S156A, K157A, S158A, P159A, L160A
